These results are taken from US20260193326A1 (published 2026).

Positions count from the first letter of the chain named.

What all share (test): SPR, AAV on CM5 chip;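 further: surface plasmon resonance with AAV amine-coupled to the chip as ligand, nanobodies injected as analyte over a concentration series, rate constants and affinity fitted from binding curves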
Background: SPR reads the build-up and loss of mass on a sensor chip optically.

The target in assay [1] is T1, AAV5 (adeno-associated virus serotype 5).
T1 construct: also called adeno-associated virus serotype 5
Experimental: (§1) AAV was amine-coupled to a CM5 sensor chip at a density of 500-800 response units (RU). Nanobodies were injected at seven concentrations (1-100 nM) with a flow rate of 45 μL/min, and chip regeneration was performed using glycine-HCl (pH 1.5). Binding curves at different nanobody concentrations were used to calculate kinetic parameters (Kₐ, Kd, KD) (Table 2 and FIG. 2).

The target of assay [2] is T2, AAV9 (adeno-associated virus serotype 9).
T2 construct: also called adeno-associated virus serotype 9
Experimental: as §1

The target of assay [3] is T3, AAV8 (adeno-associated virus serotype 8).
T3 construct: also called adeno-associated virus serotype 8
Experimental: as §1

In assay [4] the target is T4, AAV9.
T4 construct: also called adeno-associated virus serotype 9
Experimental: as §1

Assay [5] concerns the target T5, AAV5.
T5 construct: also called adeno-associated virus serotype 5
Experimental: as §1

The next assay concerns the target T6, AAV2 (UniProt P03135 1-735).
T6 construct: also called adeno-associated virus serotype 2

The target of assay [6] is T7, AAV8.
T7 construct: also called adeno-associated virus serotype 8
Experimental: as §1

Experimental for AAV2: as §1

B1: A4-107 (VHH)
VHH: VQLQESGGGLVQPGGSLRLSCIASGSGFSINTVGWYRQAPAKQRELVATLTRGGSTNYADSVKGRFTISRDNPKNTVYLQMNSLRPEDTAVYYCHVDEVRQSSWTTSNIWGQGTQVTVSS
As usually defined, the Kd is the free concentration of one partner at which half of the binding sites on the other are occupied at equilibrium, for simple one-to-one binding. For orientation: koff means the first-order rate constant of dissociation. Lower therefore signals a long-lived complex. What is called kon is the second-order rate constant of association. High values mean faster complex formation, low ones slower complex formation. In the assay with AAV5 [1], B1 had a Kd of 703 nM, a koff of 0.00353 s⁻¹ and a kon of 5020 M⁻¹ s⁻¹. Also, in the assay with AAV9 [2], the Kd was found to be 1680 nM, the koff was found to be 0.00356 s⁻¹ and the kon is 2120 M⁻¹ s⁻¹. In the assay with AAV8 [3], this molecule gave a Kd of 848 nM, a koff of 0.00101 s⁻¹ and a kon of 1190 M⁻¹ s⁻¹.

B2: A4-108 (VHH)
VHH: B1 VHH with V11A, I22L, V33M, A41P, Q43W, L50V, D60G, V96L, S103T
In the assay with AAV5 [1], B2 came in with a Kd of 7.12 nM, a koff of 0.00105 s⁻¹ and an on-rate (kon) of 148000 M⁻¹ s⁻¹. In the assay with AAV9 [2], this molecule displayed a Kd of 3.54 nM, an off-rate (koff) of 0.00061 s⁻¹ and a kon of 172000 M⁻¹ s⁻¹. In the assay with AAV8 [3], this molecule came in with a Kd of 7.94 nM, a koff of 0.00085 s⁻¹ and a kon of 107000 M⁻¹ s⁻¹.

B3: A4-110 (VHH)
VHH: VQLQESGGGLVQPGGSLRLSCFASGTNFSINVVGWYRQAPGKQRELVATITRGGSTNYAESVKGRFTISRDNAKNTVYLQMNNLRPEDTAVYYCHLDEVRDSSWTTSNLWGQGTQVTVSS
For B3, the Kd with AAV5 [1] was found to be 37.8 nM; with AAV9 [2] it was 347 nM; with AAV8 [3] it was 860 nM. For the same molecule, the dissociation rate constant (koff) with AAV5 [1] turned out to be 0.00035 s⁻¹; with AAV9 [2], 0.0014 s⁻¹; with AAV8 [3] it was 0.00596 s⁻¹. For the same molecule, the kon came to 9270 M⁻¹ s⁻¹ in the assay with AAV5 [1], 4040 M⁻¹ s⁻¹ with AAV9 [2] and 6930 M⁻¹ s⁻¹ in the assay with AAV8 [3].

B4: A4-012 (VHH)
VHH: VQLQESGGGAVQAGGSLRLSCAASGSIFSINSMGWYRQAPGKQRELVATVTRGGNTNYAGSVKGRFTISRDNAKNTVYLQMNSLRPEDTAVYYCHVDEVRESSWTTSNLWGQGTQVTVSS
On to B4, for which the Kd was 672 nM in the assay with AAV9 [4], 18.6 nM with AAV5 [5], 1180 nM with AAV2 and 324 nM in the assay with AAV8 [6]. Moreover, the koff in the assay with AAV9 [4] amounted to 0.0694 s⁻¹; with AAV5 [5], 0.00173 s⁻¹; with AAV2, 0.0554 s⁻¹; with AAV8 [6] it was 0.00417 s⁻¹. Further, the kon with AAV9 [4] amounted to 103000 M⁻¹ s⁻¹; with AAV5 [5], 93100 M⁻¹ s⁻¹; with AAV2, 47000 M⁻¹ s⁻¹; in the assay with AAV8 [6] it was 12900 M⁻¹ s⁻¹.

B5: A4-039 (VHH)
VHH: B4 VHH with A10L, A13P, I27G, S32T, Q43W, N55S, V96I, E101Q
As for B5, the Kd with AAV9 [4] amounted to 360 nM; in the assay with AAV5 [5], 246 nM; with AAV2, 39.5 nM; with AAV8 [6], 281 nM. Further, the koff amounted to 0.001 s⁻¹ with AAV9 [4], 0.00182 s⁻¹ in the assay with AAV5 [5], 0.00015 s⁻¹ with AAV2 and 0.00177 s⁻¹ with AAV8 [6]. The kon turned out to be 2780 M⁻¹ s⁻¹ with AAV9 [4], 7410 M⁻¹ s⁻¹ with AAV5 [5], 3800 M⁻¹ s⁻¹ with AAV2 and 6290 M⁻¹ s⁻¹ with AAV8 [6].

B6: A4-109 (VHH)
VHH: B4 VHH with A10L, S26T, I30L, S32V, T49S, G60D, N75T, V99L, E101D, S103T
Regarding B6, in the assay with AAV5 [1], the Kd came to 3.74 nM, the koff came to 0.00022 s⁻¹ and the kon was 58800 M⁻¹ s⁻¹. In addition, in the assay with AAV9 [2], binding was characterised by a dissociation constant (Kd) of 42.4 nM, the koff worked out at 0.00071 s⁻¹ and the kon worked out at 16800 M⁻¹ s⁻¹. In the assay with AAV8 [3], the affinity, expressed as Kd, was 2.27 nM; the koff is 0.00035 s⁻¹; the kon came out at 154000 M⁻¹ s⁻¹.

B7: A4-021 (VHH)
VHH: B4 VHH with A10L, I27T, S32T, V50I, G60D, E101Q, L109I
With B7, the Kd with AAV9 [4] amounted to 1.87 nM; with AAV5 [5] it was 7.81 nM; in the assay with AAV2 it was 0.798 nM; with AAV8 [6], 7.41 nM. In addition, the koff with AAV9 [4] came to 0.00014 s⁻¹; with AAV5 [5] it was 0.00094 s⁻¹; in the assay with AAV2, 4.37e-05 s⁻¹; with AAV8 [6] it was 0.00155 s⁻¹. Moreover, the kon with AAV9 [4] was found to be 74700 M⁻¹ s⁻¹; in the assay with AAV5 [5] it was 120000 M⁻¹ s⁻¹; with AAV2, 54800 M⁻¹ s⁻¹; with AAV8 [6], 209000 M⁻¹ s⁻¹.

B8: A4-024 (VHH)
VHH: B4 VHH with A10L, A13P, I27N, S29R, S32T, N55S, G60D, A73P
B8: the Kd in the assay with AAV9 [4] came out at 251 nM; with AAV5 [5], 35.5 nM; with AAV2, 639 nM; with AAV8 [6] it was 209 nM. Further, the koff with AAV9 [4] worked out at 0.00173 s⁻¹; in the assay with AAV5 [5], 0.00013 s⁻¹; with AAV2 it was 0.00069 s⁻¹; with AAV8 [6] it was 0.00148 s⁻¹. Further, the kon was 6900 M⁻¹ s⁻¹ with AAV9 [4], 3670 M⁻¹ s⁻¹ with AAV5 [5] and 7080 M⁻¹ s⁻¹ with AAV8 [6].

B9: A4-044 (VHH)
VHH: B4 VHH with A10L, A13P, I27S, S32T, N55V, G60D, E101Q
For B9, the Kd turned out to be 13.1 nM in the assay with AAV9 [4], 7.47 nM with AAV5 [5], 13.1 nM with AAV2 and 1.52 nM with AAV8 [6]. Besides, the koff with AAV9 [4] was 0.00188 s⁻¹; in the assay with AAV5 [5] it was 0.00137 s⁻¹; in the assay with AAV2, 0.00069 s⁻¹; with AAV8 [6], 0.00024 s⁻¹. The kon was found to be 143000 M⁻¹ s⁻¹ in the assay with AAV9 [4], 183000 M⁻¹ s⁻¹ with AAV5 [5], 52900 M⁻¹ s⁻¹ with AAV2 and 158000 M⁻¹ s⁻¹ in the assay with AAV8 [6].

B10: A4-001 (VHH)
VHH: B4 VHH with A10L, A13P, S26R, I27S, S32T, N55S, V96I, E101Q, L109I
For the molecule B10, the Kd amounted to 142 nM in the assay with AAV9 [4], 6.47 nM with AAV5 [5], 1.06 nM in the assay with AAV2 and 3.64 nM with AAV8 [6]. Moreover, the koff turned out to be 0.0116 s⁻¹ with AAV9 [4], 0.00098 s⁻¹ with AAV5 [5], 6.35e-05 s⁻¹ with AAV2 and 0.000669 s⁻¹ with AAV8 [6]. The kon in the assay with AAV9 [4] was 81600 M⁻¹ s⁻¹; in the assay with AAV5 [5], 151000 M⁻¹ s⁻¹; with AAV2, 60100 M⁻¹ s⁻¹; with AAV8 [6], 184000 M⁻¹ s⁻¹.

B11: A4-038 (VHH)
VHH: B4 VHH with A10L, A13P, I27H, S32T, N55S, G60N, V96L, E101Q
As to B11, the Kd with AAV9 [4] was 7.29 nM; in the assay with AAV5 [5], 1.57 nM; with AAV2, 0.704 nM; with AAV8 [6], 69.5 nM. Moreover, the koff in the assay with AAV9 [4] amounted to 0.0011 s⁻¹; with AAV5 [5] it was 0.00028 s⁻¹; with AAV2 it was 0.00014 s⁻¹; in the assay with AAV8 [6], 0.0005 s⁻¹. The kon with AAV9 [4] was 151000 M⁻¹ s⁻¹; with AAV5 [5], 178000 M⁻¹ s⁻¹; with AAV2 it was 199000 M⁻¹ s⁻¹; with AAV8 [6] it was 7190 M⁻¹ s⁻¹.

B12: A4-032 (VHH)
VHH: B4 VHH with A10L, A13P, A22V, I27S, S32T, G53D, N55S, G60N, E101Q
With B12, the Kd is 16.4 nM with AAV9 [4], 6.7 nM with AAV5 [5], 2.53 nM with AAV2 and 12.8 nM with AAV8 [6]. Moreover, the koff with AAV9 [4] worked out at 0.00108 s⁻¹; in the assay with AAV5 [5], 0.0009 s⁻¹; with AAV2, 0.0004 s⁻¹; in the assay with AAV8 [6], 0.00169 s⁻¹. Besides, the kon with AAV9 [4] is 65900 M⁻¹ s⁻¹; with AAV5 [5], 134000 M⁻¹ s⁻¹; in the assay with AAV2, 158000 M⁻¹ s⁻¹; in the assay with AAV8 [6] it was 132000 M⁻¹ s⁻¹.

B13: A4-011 (VHH)
VHH: B4 VHH with A10L
Take B13: the Kd with AAV9 [4] was found to be 132 nM; with AAV5 [5] it was 29.6 nM; in the assay with AAV2 it was 284 nM; with AAV8 [6], 30.4 nM. The koff with AAV9 [4] turned out to be 0.0582 s⁻¹; in the assay with AAV5 [5], 0.00028 s⁻¹; with AAV2 it was 0.0462 s⁻¹; in the assay with AAV8 [6] it was 0.00272 s⁻¹. Besides, the kon with AAV9 [4] was determined as 439000 M⁻¹ s⁻¹; in the assay with AAV5 [5], 9460 M⁻¹ s⁻¹; with AAV2, 163000 M⁻¹ s⁻¹; with AAV8 [6], 89400 M⁻¹ s⁻¹.

B14: A4-034 (VHH)
VHH: B4 VHH with A10L, A13P, S26R, I27G, S32T, T49A, N55T, G60D, E101Q
For B14, the Kd came to 6.8 nM in the assay with AAV9 [4], 12.2 nM in the assay with AAV5 [5], 3.36 nM in the assay with AAV2 and 7.84 nM with AAV8 [6]. The koff is 0.00129 s⁻¹ with AAV9 [4], 0.00021 s⁻¹ with AAV5 [5], 0.00066 s⁻¹ with AAV2 and 0.00047 s⁻¹ in the assay with AAV8 [6]. The kon in the assay with AAV9 [4] stood at 190000 M⁻¹ s⁻¹; in the assay with AAV5 [5], 17200 M⁻¹ s⁻¹; with AAV2, 196000 M⁻¹ s⁻¹; with AAV8 [6], 59900 M⁻¹ s⁻¹.

B15: A4-112 (VHH)
VHH: VQLQESGGGLVQTGGSLRLSCIASGSIFSINTVGWYRQAPPKQRELVATVTRAGSTWYAGSVKGRFTISRDNAKNTIYLQMNTLRPEDTAVYYCHVDEVRQSTWTTSNIWGQGTQVTVSS
In the assay with AAV5 [1], B15 had a Kd of 31.6 nM, a koff of 0.00412 s⁻¹ and a kon of 130000 M⁻¹ s⁻¹. In the assay with AAV9 [2], this molecule showed a Kd of 36.6 nM, a koff of 0.0052 s⁻¹ and a kon of 142000 M⁻¹ s⁻¹. In the assay with AAV8 [3], this molecule gave a Kd of 1.11 nM, a koff of 0.00021 s⁻¹ and a kon of 188000 M⁻¹ s⁻¹.

B16: A4-113 (VHH)
VHH: B15 VHH with I22V, I27R, P41G, A53G, A73T, T83S, V99I, I109L
For the molecule B16, in the assay with AAV5 [1], the dissociation constant (Kd) came to 218 nM, the koff was determined as 0.00145 s⁻¹ and the kon amounted to 6660 M⁻¹ s⁻¹. In the assay with AAV9 [2], this molecule displayed a Kd of 52.5 nM, a koff of 0.00051 s⁻¹ and a kon of 9720 M⁻¹ s⁻¹. Besides, in the assay with AAV8 [3], the Kd turned out to be 3.25 nM, the koff amounted to 2e-05 s⁻¹ and the kon amounted to 6150 M⁻¹ s⁻¹.
